According to patent US20220372093A1 (CUE BIOPHARMA, published 2022):

Experiments:
[1] = biological target: T1, TGF-β3 (Homo sapiens, UniProt P10600); test: not stated on the sheet; drawn table of Kd of TβRII variants (paragraph 345 cites Groppe et al. 2008 and De Crescenzo et al. 2006)
T1 construct: also called transforming growth factor beta 3
T1 sequence (TGF-β3 polypeptide, looked up): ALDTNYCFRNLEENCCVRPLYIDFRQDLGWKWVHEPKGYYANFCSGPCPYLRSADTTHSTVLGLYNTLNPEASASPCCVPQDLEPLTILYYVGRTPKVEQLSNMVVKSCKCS

[2] = biological target: T2, TGF-β1 (Homo sapiens, UniProt P01137); test: as above
T2 construct: also called transforming growth factor beta 1
T2 sequence (P01137 279-390 limits assumed): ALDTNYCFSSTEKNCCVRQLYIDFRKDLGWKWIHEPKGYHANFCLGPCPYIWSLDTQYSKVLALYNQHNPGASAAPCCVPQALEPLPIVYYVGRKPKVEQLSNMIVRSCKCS

Binder	Kd [1]	Kd [2]
Δ14 (receptor, also called TβRII Δ14 (N-terminal aas 1-14 deleted)) TβRII polypeptide: VTDNNGAVKFPQLCKFCDVRFSTCDNQKSCMSNCSITSICEKPQEVCVAVWRKNDENITLETVCHDPKLPYHDFILEDAASPKCIMKEKKKPGETFFMCSCSSDECNDNIIFSEEYNTSNPD	680 nM	320 nM
D32A (receptor, also called TβRII D32A) TβRII polypeptide: IPPHVQKSVNNDMIVTDNNGAVKFPQLCKFCAVRFSTCDNQKSCMSNCSITSICEKPQEVCVAVWRKNDENITLETVCHDPKLPYHDFILEDAASPKCIMKEKKKPGETFFMCSCSSDECNDNIIFSEEYNTSNPDLLLVIFQ		3520 nM
E119A (receptor, also called TβRII E119A) TβRII polypeptide: IPPHVQKSVNNDMIVTDNNGAVKFPQLCKFCDVRFSTCDNQKSCMSNCSITSICEKPQEVCVAVWRKNDENITLETVCHDPKLPYHDFILEDAASPKCIMKEKKKPGETFFMCSCSSDACNDNIIFSEEYNTSNPDLLLVIFQ		3350 nM
F30A (receptor, also called TβRII F30A) TβRII polypeptide: IPPHVQKSVNNDMIVTDNNGAVKFPQLCKACDVRFSTCDNQKSCMSNCSITSICEKPQEVCVAVWRKNDENITLETVCHDPKLPYHDFILEDAASPKCIMKEKKKPGETFFMCSCSSDECNDNIIFSEEYNTSNPDLLLVIFQ		44000 nM
S52L (receptor, also called TβRII S52L) TβRII polypeptide: IPPHVQKSVNNDMIVTDNNGAVKFPQLCKFCDVRFSTCDNQKSCMSNCSITLICEKPQEVCVAVWRKNDENITLETVCHDPKLPYHDFILEDAASPKCIMKEKKKPGETFFMCSCSSDECNDNIIFSEEYNTSNPDLLLVIFQ		154000 nM
L27A (receptor, also called TβRII L27A) TβRII polypeptide: IPPHVQKSVNNDMIVTDNNGAVKFPQACKFCDVRFSTCDNQKSCMSNCSITSICEKPQEVCVAVWRKNDENITLETVCHDPKLPYHDFILEDAASPKCIMKEKKKPGETFFMCSCSSDECNDNIIFSEEYNTSNPDLLLVIFQ		7970 nM
S52A (receptor, also called TβRII S52A) TβRII polypeptide: IPPHVQKSVNNDMIVTDNNGAVKFPQLCKFCDVRFSTCDNQKSCMSNCSITAICEKPQEVCVAVWRKNDENITLETVCHDPKLPYHDFILEDAASPKCIMKEKKKPGETFFMCSCSSDECNDNIIFSEEYNTSNPDLLLVIFQ		600 nM
E119Q (receptor, also called TβRII E119Q) TβRII polypeptide: IPPHVQKSVNNDMIVTDNNGAVKFPQLCKFCDVRFSTCDNQKSCMSNCSITSICEKPQEVCVAVWRKNDENITLETVCHDPKLPYHDFILEDAASPKCIMKEKKKPGETFFMCSCSSDQCNDNIIFSEEYNTSNPDLLLVIFQ		5950 nM
D118A (receptor, also called TβRII D118A) TβRII polypeptide: IPPHVQKSVNNDMIVTDNNGAVKFPQLCKFCDVRFSTCDNQKSCMSNCSITSICEKPQEVCVAVWRKNDENITLETVCHDPKLPYHDFILEDAASPKCIMKEKKKPGETFFMCSCSSAECNDNIIFSEEYNTSNPDLLLVIFQ		1510 nM
V77A (receptor, also called TβRII V77A) TβRII polypeptide: IPPHVQKSVNNDMIVTDNNGAVKFPQLCKFCDVRFSTCDNQKSCMSNCSITSICEKPQEVCVAVWRKNDENITLETACHDPKLPYHDFILEDAASPKCIMKEKKKPGETFFMCSCSSDECNDNIIFSEEYNTSNPDLLLVIFQ		690 nM
T51A (receptor, also called TβRII T51A) TβRII polypeptide: IPPHVQKSVNNDMIVTDNNGAVKFPQLCKFCDVRFSTCDNQKSCMSNCSIASICEKPQEVCVAVWRKNDENITLETVCHDPKLPYHDFILEDAASPKCIMKEKKKPGETFFMCSCSSDECNDNIIFSEEYNTSNPDLLLVIFQ		2970 nM
E55A (receptor, also called TβRII E55A) TβRII polypeptide: IPPHVQKSVNNDMIVTDNNGAVKFPQLCKFCDVRFSTCDNQKSCMSNCSITSICAKPQEVCVAVWRKNDENITLETVCHDPKLPYHDFILEDAASPKCIMKEKKKPGETFFMCSCSSDECNDNIIFSEEYNTSNPDLLLVIFQ		2990 nM
S49A (receptor, also called TβRII S49A) TβRII polypeptide: IPPHVQKSVNNDMIVTDNNGAVKFPQLCKFCDVRFSTCDNQKSCMSNCAITSICEKPQEVCVAVWRKNDENITLETVCHDPKLPYHDFILEDAASPKCIMKEKKKPGETFFMCSCSSDECNDNIIFSEEYNTSNPDLLLVIFQ		790 nM
I53A (receptor, also called TβRII I53A) TβRII polypeptide: IPPHVQKSVNNDMIVTDNNGAVKFPQLCKFCDVRFSTCDNQKSCMSNCSITSACEKPQEVCVAVWRKNDENITLETVCHDPKLPYHDFILEDAASPKCIMKEKKKPGETFFMCSCSSDECNDNIIFSEEYNTSNPDLLLVIFQ		2490 nM
D32N (receptor, also called TβRII D32N) TβRII polypeptide: IPPHVQKSVNNDMIVTDNNGAVKFPQLCKFCNVRFSTCDNQKSCMSNCSITSICEKPQEVCVAVWRKNDENITLETVCHDPKLPYHDFILEDAASPKCIMKEKKKPGETFFMCSCSSDECNDNIIFSEEYNTSNPDLLLVIFQ		5900 nM
I50A (receptor, also called TβRII I50A) TβRII polypeptide: IPPHVQKSVNNDMIVTDNNGAVKFPQLCKFCDVRFSTCDNQKSCMSNCSATSICEKPQEVCVAVWRKNDENITLETVCHDPKLPYHDFILEDAASPKCIMKEKKKPGETFFMCSCSSDECNDNIIFSEEYNTSNPDLLLVIFQ		7960 nM
